Test results taken from PMC9138527.

What was measured:
Assay in all cases: EMSA
[1] = tested on: Protamine-like proteins mixture (PL-II, PL-III, PL-IV), unexposed mussels (Mytilus galloprovincialis); conditions: DNA (150 ng pGEM3 or 450 ng sperm DNA) plus PLs in ultrapure water, 30 uL, 5 min, room temperature, TBE to 1x added just before the run, 1% (plasmid) or 0.6% …
[2] = tested on: Protamine-like proteins mixture (PL-II, PL-III, PL-IV), 10 nM Cr(VI)-exposed mussels (Mytilus galloprovincialis); conditions: mussels exposed to 10 nM Cr(VI), DNA (150 ng pGEM3 or 450 ng sperm DNA) plus PLs in ultrapure water, 30 uL, 5 min, room temperature, TBE to 1x added just before the run, 1% (plasmid) or 0.6% …
[3] = tested on: Protamine-like proteins mixture (PL-II, PL-III, PL-IV), 100 nM Cr(VI)-exposed mussels (Mytilus galloprovincialis); conditions: mussels exposed to 100 nM Cr(VI), DNA (150 ng pGEM3 or 450 ng sperm DNA) plus PLs in ultrapure water, 30 uL, 5 min, room temperature, TBE to 1x added just before the run, 1% (plasmid) or 0.6% …
[4] = tested on: Protamine-like proteins mixture (PL-II, PL-III, PL-IV), 1 nM Cr(VI)-exposed mussels (Mytilus galloprovincialis); conditions: mussels exposed to 1 nM Cr(VI); saturation not reached; DNA (150 ng pGEM3 or 450 ng sperm DNA) plus PLs in ultrapure water, 30 uL, 5 min, room temperature; TBE to 1x added just before the run; 1% (plasmid) or 0.6% …
[5] = scale: wt/wt protein/DNA at almost complete saturation

Substance | binding signal ([1]; unexposed, scale: wt/wt protein/DNA at almost complete saturation) | binding signal [2, 5] | binding signal [3, 5] | binding signal (wt/wt protein/DNA at saturation) [1] | binding signal (wt/wt protein/DNA at saturation) [2] | binding signal (wt/wt protein/DNA at saturation) [3] | binding signal (wt/wt protein/DNA at saturation) [4]
sperm genomic DNA | 0.6 | 0.6 | 0.6 |  |  |  | 
pGEM3 plasmid |  |  |  | 0.8 | 0.8 | 0.8 | > 1.8
